B1: LINE1-mini (parent)
chain: GGCAGAGCUCAACACAGCGUGGCAAAGUGGCUGUGGCUAGACUGCC

Variants of: B1
Assay: self-cleavage, relative activity (ratio to wild type); higher = more cleavage; in vitro, sequencing; the parent is a self-cleaving ribozyme

With GGCAGAGCUCAACACAUCGUGGCAAGGUGGCUGUGGCUAGACUGCC as the variant, how does the self-cleavage read?
Its self-cleavage is 0.1.

For GGCAGAGCUCAACACAUCGUGGCAACGUGGCUGUGGCUAGACUGCC, which self-cleavage is on record?
The self-cleavage was 0.23.

For GGCAGAGCUCAACACAUCGUGGCAAUGUGGCUGUGGCUAGACUGCC, which self-cleavage is on record?
The self-cleavage was 0.04.

For GGCAGAGCUCAACACAUCGUGGCGAAGUGGCUGUGGCUAGACUGCC, which self-cleavage is on record?
Its self-cleavage is 0.09.

With GGCAGAGCUCAACACAUCGUGGCUAAGUGGCUGUGGCUAGACUGCC as the variant, how does the self-cleavage read?
The self-cleavage was 0.25.

Which self-cleavage does the source give for GGCAGAGCUCAACACAUCGUGGCCAAGUGGCUGUGGCUAGACUGCC here?
Its self-cleavage is 0.11.

With GGCAGAGCUCAACACAUCGUGGCAAAGUGGCUGUGGCUGGACUGCC as the variant, how does the self-cleavage read?
Its self-cleavage is 0.04.

With GGCAGAGCUCAACACAUCGUGGCAAAGUGGCUGUGGCUUGACUGCC as the variant, how does the self-cleavage read?
Its self-cleavage is 0.2.

With GGCAGAGCUCAACACAUCGUGGCAAAGUGGCUGUGGCUCGACUGCC as the variant, how does the self-cleavage read?
The self-cleavage was 0.04.

For GGCAGAGCUCAACACACCGUGGCAAAGUGGCUGUGGCGAGACUGCC, which self-cleavage is on record?
The self-cleavage was 0.03.

With GGCAGAGCUCAACACACCGUGGCAAAGUGGCUGUGGCCAGACUGCC as the variant, how does the self-cleavage read?
Its self-cleavage is 0.15.

Which self-cleavage does the source give for GGCAGAGCUCAACACACCGUGGCAAAGUGGCUGUGGCAAGACUGCC here?
The self-cleavage was 0.14.

Which self-cleavage does the source give for GGCAGAGCUCAACACACCGUGGCAAAGUGGCUGUGGCUAGACAGCC here?
The self-cleavage was 0.13.

For GGCAGAGCUCAACACACCGUGGCAAAGUGGCUGUGGCUAGACCGCC, which self-cleavage is on record?
The self-cleavage was 0.08.

For GGCAGAGCUCAACACAUCGUGGCAGAGUGGCUGUGGCUAGACUGCC, which self-cleavage is on record?
Its self-cleavage is 0.07.

For GGCAGAGCUCAACACAUCGUGGCAUAGUGGCUGUGGCUAGACUGCC, which self-cleavage is on record?
Its self-cleavage is 0.12.

For GGCAGAGCUCAACACAUCGUGGCACAGUGGCUGUGGCUAGACUGCC, which self-cleavage is on record?
Its self-cleavage is 0.12.

Which self-cleavage does the source give for GGCAGAGCUCAACACACCGUGGCAAAGUGUCUGUGGCUAGACUGCC here?
The self-cleavage was 0.05.

With GGCAGAGCUCAACACACCGUGGCAAAGUGACUGUGGCUAGACUGCC as the variant, how does the self-cleavage read?
Its self-cleavage is 0.94.

Which self-cleavage does the source give for GGCAGAGCUCAACACACCGUGGCAAAGUGCCUGUGGCUAGACUGCC here?
Its self-cleavage is 0.25.

With GGCAGAGCUCAACACACCGUGGCAAAGUGGCCGUGGCUAGACUGCC as the variant, how does the self-cleavage read?
Its self-cleavage is 0.14.

Which self-cleavage does the source give for GGCAGAGCUCAACACACCGUGGCAAAGUGGCGGUGGCUAGACUGCC here?
Its self-cleavage is 0.07.

Which self-cleavage does the source give for GGCAGAGCUCAACACACCGUGGCAAAGUGGCAGUGGCUAGACUGCC here?
The self-cleavage was 0.07.

Which self-cleavage does the source give for GGCAGAGCUCAACACACCGUGGCAAAGUCGCUGUGGCUAGACUGCC here?
The self-cleavage was 0.34.

For GGCAGAGCUCAACACACCGUGGCAAAGUUGCUGUGGCUAGACUGCC, which self-cleavage is on record?
Its self-cleavage is 0.32.

With GGCAGAGCUCAACACACCGUGGCAAAGUGGCUAUGGCUAGACUGCC as the variant, how does the self-cleavage read?
The self-cleavage was 0.06.

Which self-cleavage does the source give for GGCAGAGCUCAACACACCGUGGCAAAGUGGCUUUGGCUAGACUGCC here?
The self-cleavage was 0.06.

For GGCAGAGCUCAACACACCGUGGCAAAGUGGCUCUGGCUAGACUGCC, which self-cleavage is on record?
Its self-cleavage is 0.03.

With GGCAGAGCUCAACACACCGGGGCAAAGUGGCUGUGGCUAGACUGCC as the variant, how does the self-cleavage read?
Its self-cleavage is 0.14.

Which self-cleavage does the source give for GGCAGAGCUCAACACACCGAGGCAAAGUGGCUGUGGCUAGACUGCC here?
Its self-cleavage is 0.55.

Which self-cleavage does the source give for GGCAGAGCUCAACACACCGCGGCAAAGUGGCUGUGGCUAGACUGCC here?
Its self-cleavage is 0.66.

Which self-cleavage does the source give for GGCAGAGCUCAACACACCGUGGCAAAGCGGCUGUGGCUAGACUGCC here?
Its self-cleavage is 0.36.

With GGCAGAGCUCAACACACCGUGGCAAAGAGGCUGUGGCUAGACUGCC as the variant, how does the self-cleavage read?
Its self-cleavage is 1.16.

With GGCAGAGCUCAACACACCGUGGCAAAGGGGCUGUGGCUAGACUGCC as the variant, how does the self-cleavage read?
Its self-cleavage is 1.62.

Which self-cleavage does the source give for GGCAGAGCUCAACACACCGUGGCAAAGUGGCUGGGGCUAGACUGCC here?
The self-cleavage was 0.1.

Which self-cleavage does the source give for GGCAGAGCUCAACACACCGUGGCAAAGUGGCUGCGGCUAGACUGCC here?
The self-cleavage was 0.09.

For GGCAGAGCUCAACACACCGUGGCAAAGUGGCUGAGGCUAGACUGCC, which self-cleavage is on record?
The self-cleavage was 0.07.

With GGCAGAGCUCAACACAUCGUGGCAAAGUGGCUGUGGCUAGACUGCC as the variant, how does the self-cleavage read?
Its self-cleavage is 0.23.

With GGCAGAGCUCAACACAUUGUGGCAAAGUGGCUGUGGCUAGACUGCC as the variant, how does the self-cleavage read?
The self-cleavage was 0.12.

Which self-cleavage does the source give for GGCAGAGCUCAACACAUGGUGGCAAAGUGGCUGUGGCUAGACUGCC here?
The self-cleavage was 0.12.

Which self-cleavage does the source give for GGCAGAGCUCAACACAUAGUGGCAAAGUGGCUGUGGCUAGACUGCC here?
The self-cleavage was 0.18.

Which self-cleavage does the source give for GGCAGAGCUCAACACACCGUGGCAAAGUGGCUGUGGCUACACUGCC here?
Its self-cleavage is 0.05.

With GGCAGAGCUCAACACACCGUGGCAAAGUGGCUGUGGCUAAACUGCC as the variant, how does the self-cleavage read?
Its self-cleavage is 0.04.

Which self-cleavage does the source give for GGCAGAGCUCAACACACCGUGGCAAAGUGGCUGUGGCUAUACUGCC here?
Its self-cleavage is 0.07.

With GGCAGAGCUCAACACACCGUGGCAAAGUGGCUGUGUCUAGACUGCC as the variant, how does the self-cleavage read?
The self-cleavage was 0.08.

Which self-cleavage does the source give for GGCAGAGCUCAACACACCGUGGCAAAGUGGCUGUGCCUAGACUGCC here?
The self-cleavage was 0.04.

With GGCAGAGCUCAACACACCGUGGCAAAGUGGCUGUGACUAGACUGCC as the variant, how does the self-cleavage read?
The self-cleavage was 0.09.

Which self-cleavage does the source give for GGCAGAGCUCAACACACCGUGGCAAAGUGGCUGUAGCUAGACUGCC here?
Its self-cleavage is 0.11.

With GGCAGAGCUCAACACACCGUGGCAAAGUGGCUGUUGCUAGACUGCC as the variant, how does the self-cleavage read?
The self-cleavage was 0.03.

Which self-cleavage does the source give for GGCAGAGCUCAACACACCGUGGCAAAGUGGCUGUCGCUAGACUGCC here?
Its self-cleavage is 0.04.

Which self-cleavage does the source give for GGCAGAGCUCAACACACCGUGGCAAAGUGGCUGUGGCUAGACUUCC here?
Its self-cleavage is 0.07.

Which self-cleavage does the source give for GGCAGAGCUCAACACACCGUGGCAAAGUGGCUGUGGCUAGACUACC here?
Its self-cleavage is 0.11.

Which self-cleavage does the source give for GGCAGAGCUCAACACACCGUGGCAAAGUGGCUGUGGCUAGACUCCC here?
Its self-cleavage is 0.05.

Which self-cleavage does the source give for GGCAGAGCUCAACACAUCGUGGCAAAGUGGCUGUGGCUAGUCUGCC here?
The self-cleavage was 0.09.

For GGCAGAGCUCAACACAUCGUGGCAAAGUGGCUGUGGCUAGGCUGCC, which self-cleavage is on record?
The self-cleavage was 0.08.

For GGCAGAGCUCAACACAUCGUGGCAAAGUGGCUGUGGCUAGCCUGCC, which self-cleavage is on record?
The self-cleavage was 0.1.
